Assay results reported in patent publication US20260242419A1, “A CYCLIC PEPTIDE FOR TRAPPING INTERLEUKIN-1 BETA” (Merck Sharp & Dohme LLC, priority 2023, published 2026).
Starred links: 1 amine or outer side, 2 acyl side, 3 side chain; linkers in the order of their positions; H or OH if unused. Non-standard residues stand in square brackets, D forms with d. Residues, ends and D or L forms follow the SMILES beside them. 3Pal4Ph4CO2H = 4-[5-[(2S)-2-amino-2-carboxy-ethyl]-2-pyridyl]benzoic acid, O=C([C@H](Cc1ccc(-c2ccc(C(=O)[*:3])cc2)nc1)N[*:1])[*:2]; TyrEtNAc = (2S)-3-[4-(2-acetamidoethoxy)phenyl]-2-amino-propanoic acid, CC(=O)NCCOc1ccc(C[C@H](N[*:1])C(=O)[*:2])cc1; dProc3Bn = (2R,3S)-3-benzylpyrrolidine-2-carboxylic acid, O=C([C@H]1[C@@H](Cc2ccccc2)CCN1[*:1])[*:2]; 3PyridaAla = (2S)-2-amino-3-pyridazin-3-yl-propanoic acid, O=C([C@H](Cc1cccnn1)N[*:1])[*:2]; Phe(4-(cis-4-COOH-cHex)) = N[C@@H](Cc1ccc([C@H]2CC[C@@H](C(=O)O)CC2)cc1)C(=O)O; dPro(4R-(4-pyridylmethyl)) = O=C(O)[C@H]1C[C@@H](Cc2ccncc2)CN1; Trp(βS-Me,4-F) = C[C@@H](c1c[nH]c2cccc(F)c12)[C@H](N)C(=O)O; Bip(4'-CONH2) = NC(=O)c1ccc(-c2ccc(C[C@H](N)C(=O)O)cc2)cc1; Bip(4'-COOH) = N[C@@H](Cc1ccc(-c2ccc(C(=O)O)cc2)cc1)C(=O)O; Ala(1-bicyclo(1.1.1)pentyl) = N[C@@H](CC12CC(C1)C2)C(=O)O; dPro(4R-Bzl(4-F)) = O=C(O)[C@H]1C[C@@H](Cc2ccc(F)cc2)CN1; dPro(3S-(4-F-Bn)) = O=C(O)[C@@H]1NCC[C@@H]1Cc1ccc(F)cc1; X7 = Nc1cc(-c2ccc(C[C@H](N[*:1])C(=O)[*:2])cc2)ccn1; Ala(pyrimidin-5-yl) = N[C@@H](Cc1cncnc1)C(=O)O; Phe(4-CONH2) = NC(=O)c1ccc(C[C@H](N)C(=O)O)cc1; Phe(4-COOH) = N[C@@H](Cc1ccc(C(=O)O)cc1)C(=O)O; Ala(2-pyrazinyl) = N[C@@H](Cc1cnccn1)C(=O)O; Pro(cis-4-F) = O=C(O)[C@@H]1C[C@H](F)CN1; AEF = NCCOc1ccc(C[C@H](N)C(=O)O)cc1; d(αMeD) = C[C@@](N)(CC(=O)O)C(=O)O; 4Pal = N[C@@H](Cc1ccncc1)C(=O)O; aThr = C[C@H](O)[C@H](N)C(=O)O; NMeDab = CN[C@@H](CCN)C(=O)O; αMeK = C[C@](N)(CCCCN)C(=O)O; αMeS = C[C@](N)(CO)C(=O)O; Api = NC1(C(=O)O)CCNCC1; Dab = NCC[C@H](N)C(=O)O; Dap = NC[C@H](N)C(=O)O; Aib = CC(C)(N)C(=O)O

B1: SEQ ID NO: 105 (peptide)
peptide: cyclo([Phe(4-(cis-4-COOH-cHex))][Ala(1-bicyclo(1.1.1)pentyl)][Phe(4-COOH)]G[Pro(cis-4-F)][Trp(βS-Me,4-F)][Aib]EW[Api]SQ[Dab]G[dPro(4R-Bzl(4-F))])
SMILES: C[C@@H](c1c[nH]c2cccc(F)c12)[C@@H]1NC(=O)[C@@H]2C[C@H](F)CN2C(=O)CNC(=O)[C@H](Cc2ccc(C(=O)O)cc2)NC(=O)[C@H](CC23CC(C2)C3)NC(=O)[C@H](Cc2ccc([C@H]3CC[C@@H](C(=O)O)CC3)cc2)NC(=O)[C@H]2C[C@@H](Cc3ccc(F)cc3)CN2C(=O)CNC(=O)[C@H](CCN)NC(=O)[C@H](CCC(N)=O)NC(=O)[C@H](CO)NC(=O)C2(CCNCC2)NC(=O)[C@H](Cc2c[nH]c3ccccc23)NC(=O)[C@H](CCC(=O)O)NC(=O)C(C)(C)NC1=O
B2: SEQ ID NO: 10 (peptide)
peptide: cyclo([TyrEtNAc][4Pal][Phe(4-COOH)]G[Pro(cis-4-F)][Trp(βS-Me,4-F)][Aib]EW[Aib][Ala(pyrimidin-5-yl)]Q[Dab]G[dPro(4R-Bzl(4-F))])
SMILES: CC(=O)NCCOc1ccc(C[C@@H]2NC(=O)[C@H]3C[C@@H](Cc4ccc(F)cc4)CN3C(=O)CNC(=O)[C@H](CCN)NC(=O)[C@H](CCC(N)=O)NC(=O)[C@H](Cc3cncnc3)NC(=O)C(C)(C)NC(=O)[C@H](Cc3c[nH]c4ccccc34)NC(=O)[C@H](CCC(=O)O)NC(=O)C(C)(C)NC(=O)[C@H]([C@@H](C)c3c[nH]c4cccc(F)c34)NC(=O)[C@@H]3C[C@H](F)CN3C(=O)CNC(=O)[C@H](Cc3ccc(C(=O)O)cc3)NC(=O)[C@H](Cc3ccncc3)NC2=O)cc1
B3: SEQ ID NO: 104 (peptide)
peptide: cyclo([Phe(4-(cis-4-COOH-cHex))][Ala(1-bicyclo(1.1.1)pentyl)][Phe(4-COOH)]G[Pro(cis-4-F)][Trp(βS-Me,4-F)][αMeS]EW[αMeK][Ala(pyrimidin-5-yl)]Q[Dab]G[dPro(4R-Bzl(4-F))])
SMILES: C[C@@H](c1c[nH]c2cccc(F)c12)[C@@H]1NC(=O)[C@@H]2C[C@H](F)CN2C(=O)CNC(=O)[C@H](Cc2ccc(C(=O)O)cc2)NC(=O)[C@H](CC23CC(C2)C3)NC(=O)[C@H](Cc2ccc([C@H]3CC[C@@H](C(=O)O)CC3)cc2)NC(=O)[C@H]2C[C@@H](Cc3ccc(F)cc3)CN2C(=O)CNC(=O)[C@H](CCN)NC(=O)[C@H](CCC(N)=O)NC(=O)[C@H](Cc2cncnc2)NC(=O)[C@](C)(CCCCN)NC(=O)[C@H](Cc2c[nH]c3ccccc23)NC(=O)[C@H](CCC(=O)O)NC(=O)[C@](C)(CO)NC1=O
B4: SEQ ID NO: 1 (peptide)
peptide: cyclo([Bip(4'-COOH)][4Pal][Phe(4-COOH)]G[Pro(cis-4-F)][Trp(βS-Me,4-F)][Aib]EW[Aib]FQSG[dProc3Bn])
SMILES: C[C@@H](c1c[nH]c2cccc(F)c12)[C@@H]1NC(=O)[C@@H]2C[C@H](F)CN2C(=O)CNC(=O)[C@H](Cc2ccc(C(=O)O)cc2)NC(=O)[C@H](Cc2ccncc2)NC(=O)[C@H](Cc2ccc(-c3ccc(C(=O)O)cc3)cc2)NC(=O)[C@H]2[C@@H](Cc3ccccc3)CCN2C(=O)CNC(=O)[C@H](CO)NC(=O)[C@H](CCC(N)=O)NC(=O)[C@H](Cc2ccccc2)NC(=O)C(C)(C)NC(=O)[C@H](Cc2c[nH]c3ccccc23)NC(=O)[C@H](CCC(=O)O)NC(=O)C(C)(C)NC1=O
B5: SEQ ID NO: 103 (peptide)
peptide: cyclo([Phe(4-(cis-4-COOH-cHex))][Ala(1-bicyclo(1.1.1)pentyl)][Phe(4-COOH)]G[Pro(cis-4-F)][Trp(βS-Me,4-F)][αMeS]EW[Aib][Ala(pyrimidin-5-yl)]Q[Dab]G[dPro(4R-Bzl(4-F))])
SMILES: C[C@@H](c1c[nH]c2cccc(F)c12)[C@@H]1NC(=O)[C@@H]2C[C@H](F)CN2C(=O)CNC(=O)[C@H](Cc2ccc(C(=O)O)cc2)NC(=O)[C@H](CC23CC(C2)C3)NC(=O)[C@H](Cc2ccc([C@H]3CC[C@@H](C(=O)O)CC3)cc2)NC(=O)[C@H]2C[C@@H](Cc3ccc(F)cc3)CN2C(=O)CNC(=O)[C@H](CCN)NC(=O)[C@H](CCC(N)=O)NC(=O)[C@H](Cc2cncnc2)NC(=O)C(C)(C)NC(=O)[C@H](Cc2c[nH]c3ccccc23)NC(=O)[C@H](CCC(=O)O)NC(=O)[C@](C)(CO)NC1=O
B6: SEQ ID NO: 102 (peptide)
peptide: cyclo([Bip(4'-COOH)][4Pal][Phe(4-COOH)]G[Pro(cis-4-F)][Trp(βS-Me,4-F)][Aib]EW[Aib][3PyridaAla]Q[Dab]G[dPro(4R-Bzl(4-F))])
SMILES: C[C@@H](c1c[nH]c2cccc(F)c12)[C@@H]1NC(=O)[C@@H]2C[C@H](F)CN2C(=O)CNC(=O)[C@H](Cc2ccc(C(=O)O)cc2)NC(=O)[C@H](Cc2ccncc2)NC(=O)[C@H](Cc2ccc(-c3ccc(C(=O)O)cc3)cc2)NC(=O)[C@H]2C[C@@H](Cc3ccc(F)cc3)CN2C(=O)CNC(=O)[C@H](CCN)NC(=O)[C@H](CCC(N)=O)NC(=O)[C@H](Cc2cccnn2)NC(=O)C(C)(C)NC(=O)[C@H](Cc2c[nH]c3ccccc23)NC(=O)[C@H](CCC(=O)O)NC(=O)C(C)(C)NC1=O
B7: SEQ ID NO: 100 (peptide)
peptide: cyclo([3Pal4Ph4CO2H][Ala(1-bicyclo(1.1.1)pentyl)][Phe(4-COOH)]G[Pro(cis-4-F)][Trp(βS-Me,4-F)][Aib]EW[Aib][Dap]Q[Dab]G[dPro(4R-Bzl(4-F))])
SMILES: C[C@@H](c1c[nH]c2cccc(F)c12)[C@@H]1NC(=O)[C@@H]2C[C@H](F)CN2C(=O)CNC(=O)[C@H](Cc2ccc(C(=O)O)cc2)NC(=O)[C@H](CC23CC(C2)C3)NC(=O)[C@H](Cc2ccc(-c3ccc(C(=O)O)cc3)nc2)NC(=O)[C@H]2C[C@@H](Cc3ccc(F)cc3)CN2C(=O)CNC(=O)[C@H](CCN)NC(=O)[C@H](CCC(N)=O)NC(=O)[C@H](CN)NC(=O)C(C)(C)NC(=O)[C@H](Cc2c[nH]c3ccccc23)NC(=O)[C@H](CCC(=O)O)NC(=O)C(C)(C)NC1=O

The molecules below were run against Recombinant human IL-1β (BioLegend 579404) (human, UniProt P01584 117-269) (assay: cell-based or functional assay). Conditions: not given.

MRC5 IC50 [nM]	Molecule
0.083	B1
0.027	B2
0.085	B3
0.093	B4
0.021	cyclo([Bip(4'-COOH)][4Pal][Phe(4-COOH)]G[Pro(cis-4-F)][Trp(βS-Me,4-F)][Aib]EW[Aib][Ala(2-pyrazinyl)]Q[Dab]G[dPro(4R-Bzl(4-F))]) [SEQ ID NO: 101]
0.06	B5
0.021	B6
0.074	B7

The molecules below were run against T1, IL-1β (Homo sapiens, UniProt P01584) (assay: IL-6 assay in MRC5 cells: inhibition of IL-1β induced IL-6 secretion (AlphaLISA)). Conditions: inhibition of IL-1β induced IL-6 secretion in MRC5 cells; read-out: MRC5 IC50.
T1 construct: purchased BioLegend 579404
Assay type: cell-based
Summary of the method: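 Compound was pre-incubated 1 h at ambient temperature with recombinant human IL-1β at 2λ EC80 before adding human lung fibroblast MRC5 cells (3000/well) in EMEM with 0.025% BSA. After overnight culture at 37 °C, 5% CO2, secreted IL-6 in conditioned medium was measured by AlphaLISA; IC50 from 4-parameter logistic fits.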

T1 sequence (P01584 117-269): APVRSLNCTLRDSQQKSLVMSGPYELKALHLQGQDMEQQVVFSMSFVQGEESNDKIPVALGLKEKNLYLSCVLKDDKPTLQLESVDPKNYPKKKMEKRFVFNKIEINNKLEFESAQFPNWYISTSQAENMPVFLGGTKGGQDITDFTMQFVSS

IC50 [nM]	Molecule
0.018	C[C@@H](c1c[nH]c2cccc(F)c12)[C@@H]1NC(=O)[C@@H]2C[C@H](F)CN2C(=O)CNC(=O)[C@H](Cc2ccc(C(N)=O)cc2)NC(=O)[C@H](Cc2ccncc2)NC(=O)[C@H](Cc2ccc(-c3ccc(C(N)=O)cc3)cc2)NC(=O)[C@H]2[C@@H](Cc3ccc(F)cc3)CCN2C(=O)CNC(=O)[C@H](CCN)NC(=O)[C@H](CCC(N)=O)NC(=O)[C@H](Cc2cncnc2)NC(=O)[C@@](C)(CC(=O)O)NC(=O)[C@H](Cc2c[nH]c3ccccc23)NC(=O)[C@H](CO)NC(=O)C(C)(C)NC1=O [Example 380] (cyclo([Bip(4'-CONH2)][4Pal][Phe(4-CONH2)]G[Pro(cis-4-F)][Trp(βS-Me,4-F)][Aib]SW[d(αMeD)][Ala(pyrimidin-5-yl)]Q[Dab]G[dPro(3S-(4-F-Bn))]))
0.041	CCO[C@@H](C)[C@@H]1NC(=O)C(C)(C)NC(=O)[C@H](Cc2c[nH]c3ccccc23)NC(=O)[C@H](CO)NC(=O)C(C)(C)NC(=O)[C@H]([C@@H](C)c2c[nH]c3cccc(F)c23)NC(=O)[C@@H]2C[C@H](F)CN2C(=O)CNC(=O)[C@H](Cc2ccc(C(N)=O)cc2)NC(=O)[C@H](Cc2ccncc2)NC(=O)[C@H](Cc2ccc(OCCNC(C)=O)cc2)NC(=O)[C@H]2C[C@@H](Cc3ccncc3)CN2C(=O)CNC(=O)[C@H](CCN)N(C)C(=O)[C@H](CCC(N)=O)NC1=O [Example 381] (cyclo([4Pal][Phe(4-CONH2)]G[Pro(cis-4-F)][Trp(βS-Me,4-F)][Aib]SW[Aib][aThr](Et)Q[NMeDab]G[dPro(4R-(4-pyridylmethyl))][AEF](Ac)))
0.048	CCO[C@H](C)[C@@H]1NC(=O)C(C)(C)NC(=O)[C@H](Cc2c[nH]c3ccccc23)NC(=O)[C@H](CO)NC(=O)C(C)(C)NC(=O)[C@H]([C@@H](C)c2c[nH]c3cccc(F)c23)NC(=O)[C@@H]2C[C@H](F)CN2C(=O)CNC(=O)[C@H](Cc2ccc(C(N)=O)cc2)NC(=O)[C@H](Cc2ccncc2)NC(=O)[C@H](Cc2ccc(OCCNC(C)=O)cc2)NC(=O)[C@H]2C[C@@H](Cc3ccncc3)CN2C(=O)CNC(=O)[C@H](CCN)N(C)C(=O)[C@H](CCC(N)=O)NC1=O [Example 382] (cyclo([AEF](Ac)[4Pal][Phe(4-CONH2)]G[Pro(cis-4-F)][Trp(βS-Me,4-F)][Aib]SW[Aib]T(Et)Q[NMeDab]G[dPro(4R-(4-pyridylmethyl))]))
0.023	C[C@@H](c1c[nH]c2cccc(F)c12)[C@@H]1NC(=O)[C@@H]2C[C@H](F)CN2C(=O)CNC(=O)[C@H](Cc2ccc(C(=O)O)cc2)NC(=O)[C@H](Cc2ccncc2)NC(=O)[C@H](Cc2ccc(-c3ccnc(N)c3)cc2)NC(=O)[C@H]2[C@@H](Cc3ccc(F)cc3)CCN2C(=O)CNC(=O)[C@H](CCN)NC(=O)[C@H](CCC(N)=O)NC(=O)[C@H](Cc2cncnc2)NC(=O)[C@@](C)(CC(=O)O)NC(=O)[C@H](Cc2c[nH]c3ccccc23)NC(=O)[C@H](CO)NC(=O)C(C)(C)NC1=O [Example 385] (cyclo([X7][4Pal][Phe(4-COOH)]G[Pro(cis-4-F)][Trp(βS-Me,4-F)][Aib]SW[d(αMeD)][Ala(pyrimidin-5-yl)]Q[Dab]G[dPro(3S-(4-F-Bn))]))
